# Molecular target: tubulin heterodimer (porcine/bovine brain tubulin) (not stated (porcine or bovine brain)) (UniProt Q6B856)
# Experiment: ITC; PN2-3 proteins/peptides titrated into tubulin in the cell; 15 °C; 1xBRB80 (80 mM PIPES-K, 1 mM MgCl2, 1 mM EGTA, pH 6.8); one set of binding sites model; tubulin 9 μM for wild type and mutant PN2-3
# Sequence of PN2-3N peptide (N-terminal helical region of PN2-3, aa 323-361 of CPAP) (Q9HC77 323-361): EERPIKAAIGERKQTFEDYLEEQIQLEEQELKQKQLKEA
# Sequence of human CPAP PN2-3 domain (aa 319-394) EE343RR (Q9HC77 other isoform, or with tags, fused parts or gaps): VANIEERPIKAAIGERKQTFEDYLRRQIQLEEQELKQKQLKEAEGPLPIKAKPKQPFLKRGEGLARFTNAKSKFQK
# Sequence of human CPAP PN2-3 domain (aa 319-394), wild type (Q9HC77 319-394): as the sequence (Q9HC77 other isoform, or with tags, fused parts or gaps) above, with R25E, R26E counted along it
row,Substance,Kd [nM]
1,human CPAP PN2-3 domain (aa 319-394) EE343RR (from UniProt Q9HC77 319-394) (domain or fragment),194
2,"human CPAP PN2-3 domain (aa 319-394), wild type (from UniProt Q9HC77 319-394) (domain or fragment)",25.6
3,"PN2-3N peptide (N-terminal helical region of PN2-3, aa 323-361 of CPAP) (from UniProt Q9HC77 323-361)",68000
4,human CPAP PN2-3 domain (aa 319-394) F375A (from UniProt Q9HC77 319-394) (domain or fragment),2800

# — publication PMC4912634
